Test results taken from patent US20140235701, “NGF APTAMER AND APPLICATION THEREOF” (RIBOMIC INC., published 2014).

B1: SEQ ID NO: 7 (ssRNA)
RNA: GGGAGAACUUCGACCAGAAGACGCACCUCUUAUCACACAUGCGUCAGCCUUGUGAUACUAUGUGCGCAUACAUGGAUCCUC
modifications: 2'-F C and U; 2'-OH G; 2'-H (deoxy) A
B2: SEQ ID NO: 2 (ssRNA)
RNA: GGGAGAACUUCGACCAGAAGUCCAAACGGGACUUUAUACCUCUGAGUCGCCUACGCUCCUAUGUGCGCAUACAUGGAUCCUC
modifications: 2'-F C and U; 2'-OH G; 2'-H (deoxy) A
B3: SEQ ID NO: 3 (ssRNA)
RNA: GGGAGAACUUCGACCAGAAGUUGGCACAUCCUGCUGCGUAGUUUCCGUCUCCGUGGCUGUUAUGUGCGCAUACAUGGAUCCUC
modifications: 2'-F C and U; 2'-OH G; 2'-H (deoxy) A
B4: SEQ ID NO: 4 (ssRNA)
RNA: GGGAGAACUUCGACCAGAAGUACGUUAGUACGUUUGCAUAUGUACAACCUUGCAUACGAUACGUAGAUUAUGUGCGCAUACAUGGAUCCUC
modifications: 2'-F C and U; 2'-OH G; 2'-H (deoxy) A
B5: SEQ ID NO: 5 (ssRNA)
RNA: GGGAGAACUUCGACCAGAAGUUAGAAGAGGACUAGUUGCUAAUGCCCUGGUUCGUCGCUAUAUGUGCGCAUACAUGGAUCCUC
modifications: 2'-F C and U; 2'-OH G; 2'-H (deoxy) A
B6: SEQ ID NO: 8 (ssRNA)
RNA: GGGAGAACUUCGACCAGAAGAUCCACUGGUACUACGUGACCCCGCAUAGGCAAUCCUGCUUAUGUGCGCAUACAUGGAUCCUC
modifications: 2'-F C and U; 2'-OH G; 2'-H (deoxy) A
B7: SEQ ID NO: 6 (ssRNA)
RNA: GGGAGAACUUCGACCAGAAGUGCAAUACUUUCGCGGCAUAUGUGCAAACCUUGCCACGACUAUGUGCGCAUACAUGGAUCCUC
modifications: 2'-F C and U; 2'-OH G; 2'-H (deoxy) A

Biological target: T1, NGF (nerve growth factor) (Homo sapiens, UniProt P01138 P01138:122-241)
Assay: SPR; more than 40N
Conditions: tags: R&D Systems; chain copies: 2
Description: As the measuring apparatus, BIAcore2000 manufactured by BIAcore was used and, as the sensor chip, CM5 that reacts with an amino group was used. […] For the reaction of an amino group on the protein side and a carboxyl group on the chip side, ethyl-3-carbodiimide hydrochloride and N-hydroxysuccinimide were used. After the reaction, blocking by ethanolamine-HCl was performed. The immobilized amount of NGF was set to 3,000-4,000 RU. An aptamer for analyte was prepared to 0.15 μM-0.5 μM. As a running buffer, solution A was used. Here, solution A is a mixed solution of 145 mM sodium chloride, 5.4 mM potassium chloride, 1.8 mM calcium chloride, 0.8 mM magnesium chloride, 20 mM Tris (pH 7.6), 0.05% Tween 20. As a regeneration solution, a mixed solution of 1M NaCl and 50 mM NaOH was used. NGF was immobilized on FC2, and the results of FC1 were subtracted to give a final sensorgram.
The binding activity of these aptamers to NGF was evaluated by the surface plasmon resonance method in the same manner as in Example 1.

T1 sequence (P01138 122-241, one chain of several): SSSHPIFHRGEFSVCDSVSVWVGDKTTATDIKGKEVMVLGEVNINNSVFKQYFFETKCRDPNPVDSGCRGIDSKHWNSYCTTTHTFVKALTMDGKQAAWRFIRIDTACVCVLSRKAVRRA

Binder	binding result
GCAAUACUUUCGCGGCAUAUGUGCAAACCUUGCCACGACUAUGUGC (ssRNA, 2'-F C and U; 2'-OH G; 2'-H (deoxy) A) [SEQ ID NO: 19]	binds
GUGCAAUACUUUCGCGGCAUAUGUGCAAACCUUGCCACGACUAUGUGCGC (ssRNA, 2'-F C and U; 2'-OH G; 2'-H (deoxy) A) [SEQ ID NO: 20]	binds
GGGAAUACUUUCGCGGCAUAUGUGCAAACCUUGCCACGACUAUGUCCC (ssRNA, 2'-F C and U; 2'-OH G; 2'-H (deoxy) A) [SEQ ID NO: 21]	binds

Biological target: T1, NGF (nerve growth factor)
Assay: SPR; strong inhibition of NGF-receptor binding
Conditions: tags: R&D Systems; chain copies: 2
Description: As directed in BIAcore's protocol, Protein A (21181, PIERCE) was immobilized on a CM5 sensor chip. About 700 to 1200 RU of human TrkA fused with the Fc portion of IgG (175-TK, R&D systems) or human P75 (367-NR, R&D systems) was immobilized thereon. As the analyte, a mixture of NGF (0.1 μM) and each aptamer (0.3 μM) was injected after being allowed to stand for 30 minutes. […] When NGF binds stronger to a receptor than an aptamer, the aptamer may be removed and NGF may bind to the receptor. Before starting the inhibition experiment, binding of TrkA or p75 and NGF was confirmed.

Binder	binding result
B1	binds
B2	binds
B3	binds
B4	binds
B5	binds

Biological target: T1, NGF (nerve growth factor)
Assay: SPR; inhibits NGF-receptor binding; inhibits neurite outgrowth at 10 nM
Conditions: tags: R&D Systems; chain copies: 2

Binder	binding result
B6	binds
B7	binds

Biological target: T1, NGF (nerve growth factor)
Assay: SPR; binding maintained on shortening
Conditions: tags: R&D Systems; chain copies: 2

Binder	binding result
GGGUCCUGCGUAAGAGUUUCCGUCUCGUAUGCUGUUACCC (ssRNA, 2'-F C and U; 2'-OH G; 2'-H (deoxy) A) [SEQ ID NO: 90]	binds
GGGUCCUGCCUAAGAGUUUCCGUCUCGUAGGCUGUUACCC (ssRNA, 2'-F C and U; 2'-OH G; 2'-H (deoxy) A) [SEQ ID NO: 91]	binds
GGGUCCUGACCAAGAGUUUCCGUCUCGUGGUCUGUACCC (ssRNA, 2'-F C and U; 2'-OH G; 2'-H (deoxy) A) [SEQ ID NO: 92]	binds
